Experimental data published in PMC8696166.

Molecular target: His-GD1 (N-terminally His-tagged GD1 domain of EngA) (Synechococcus elongatus PCC7942)
Test: pull-down; His-EngA or His-GD1 (6 μg) bound to DynaBeads-Histag, 6 μg PipX–ST added; 50 mM Tris-HCl pH 7, 0.1 M KCl, 10% glycerol, 10 mM MgCl2, 20 mM imidazole, 0.1% Triton-X100, with or without 1 mM GDP, room temperature; elution with 500 mM imidazole; Western blot with antisera against PipX and EngA

Sequence of His-GD1 (N-terminally His-tagged GD1 domain of EngA) (Synechococcus elongatus PCC7942) (Q31KP9 1-169): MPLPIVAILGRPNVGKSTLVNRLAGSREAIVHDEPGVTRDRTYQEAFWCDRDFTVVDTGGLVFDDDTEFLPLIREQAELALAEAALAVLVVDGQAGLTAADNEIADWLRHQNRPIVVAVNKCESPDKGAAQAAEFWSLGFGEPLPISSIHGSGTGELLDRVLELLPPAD

B1: PipX–ST (C-terminally Strep-tagged PipX) (natural protein)
chain: MASENYLNHPTFGLLYQICSFGDSKELFATLYAQRLFFLVAFDARGTRFEPIGRNEARMLVDNRLRQLRRDASLQEYNQLQQVFKQTFL
  retention of PipX (PipX/GD1 band intensity ratio) relative to the PipX/EngA ratio with His-EngA: 10 fold
